Patent publication US20120269827A1, “Compositions and Methods for Treatment of Ovarian, Peritoneal, and Fallopian Tube Cancer” (ImmunoGen, Inc., priority 2011, published 2012)
Entries after “also recorded” stand apart in the source; their conditions may differ.

Key:
[1] = test system: COLO 720E human ovarian carcinoma xenografts; experiment: Anti-tumor effect of lorvotuzumab mertansine and topotecan in established subcutaneous COLO 720E xenografts (Example 2); format: in vivo, athymic nude mice; set-up: key to anti-tumor activity rating (NCI standards): Percent T/C values less than or equal to 42% and/or LCK values of 0.5 or greater are considered active; percent T/C values less than 10% are considered highly active; conditions: for mice tumor free until the end of the study: day 120, six mice per group; for % of tumor growth for treated vs. control (T/C) / anti-tumor activity rating (NCI standards): lorvotuzumab mertansine 11 mg/kg iv once weekly x3, topotecan 0.7 mg/kg ip 5/2/5 schedule, combination same doses
Source text: Mice were inoculated with human ovarian cancer cell lines and allowed to become established (average tumor size of about 100 mm^3) prior to treatment. Conjugate dosing is described based on antibody concentration. Efficacy is reported as both the % of tumor growth for treated vs. control (% T/C) and log cell kill (LCK) determined from the tumor doubling time and the tumor growth delay due to the treatment. […] Athymic nude mice were inoculated with COLO 720E human ovarian cancer cells (1×10^7 cells/animal) injected subcutaneously into the right flank. When the tumors reached about 115 mm^3 in size (12 days after tumor cell inoculation), the mice were randomly divided into four groups (six animals per group). A control group was treated with a single intravenous injection of PBS. A second group of mice were treated with the single agent lorvotuzumab mertansine at a dose of 11 mg/kg once weekly for three weeks (days 12, 19 and 26 post tumor cell inoculation) administered intravenously. The third group received single-agent topotecan administered intraperitoneally at a dose of 0.7 mg/kg on a 5/2/5 schedule (daily×5, 2 days off, daily×5; days 12-16 and 19-23 post tumor cell inoculation). A fourth group was treated with the combination of lorvotuzumab mertansine and topotecan with the same doses and routes of administration as for individual treatments. Tumor growth was monitored by measuring tumor size twice per week. Tumor size was calculated with the formula: length×width×height×½.

[2] = test system: COLO 720E human ovarian carcinoma xenografts; experiment: Anti-tumor effect of lorvotuzumab mertansine and gemcitabine in established subcutaneous COLO 720E xenografts (Example 1); format: in vivo, athymic nude mice; conditions: for % of tumor growth for treated vs. control (T/C) / anti-tumor activity rating (NCI standards): lorvotuzumab mertansine 11 mg/kg iv once weekly x3, gemcitabine 80 mg/kg ip every three days x4, combination same doses; for tumor regressions (any): six mice per group, single-agent groups
Source text: (§1) Mice were inoculated with human ovarian cancer cell lines and allowed to become established (average tumor size of about 100 mm^3) prior to treatment. Conjugate dosing is described based on antibody concentration. Efficacy is reported as both the % of tumor growth for treated vs. control (% T/C) and log cell kill (LCK) determined from the tumor doubling time and the tumor growth delay due to the treatment.
The anti-tumor effect of a combination of lorvotuzumab mertansine and gemcitabine was evaluated in an established subcutaneous xenograft model of ovarian cancer. Athymic nude mice were inoculated with COLO 720E human ovarian cancer cells (1×10^7 cells/animal) injected subcutaneously into the right flank. When the tumors reached about 110 mm^3 in size (10 days after tumor cell inoculation), the mice were randomly divided into four groups (six animals per group). A control group was treated with a single intravenous injection of PBS. A second group of mice were treated with the single agent lorvotuzumab mertansine at a dose of 11 mg/kg once weekly for three weeks (days 11, 18 and 25 post tumor cell inoculation) administered intravenously. The third group received single-agent gemcitabine administered intraperitoneally at a dose of 80 mg/kg every three days for a total of four injections (days 11, 14, 17 and 20 post tumor cell inoculation). A fourth group was treated with the combination of lorvotuzumab mertansine and gemcitabine with the same doses and routes of administration as for individual treatments. Tumor growth was monitored by measuring tumor size twice per week. Tumor size was calculated with the formula: length×width×height×½.

[3] = test system: human xenograft preclinical models for ovarian cancer; conditions: no data given; cited from earlier work
[4] = test system: COLO 720E human ovarian carcinoma xenografts; experiment: Anti-tumor effect of lorvotuzumab mertansine and DOXIL in established subcutaneous COLO 720E xenografts (Example 3); format: in vivo, athymic nude mice; set-up: key to anti-tumor activity rating (NCI standards): Percent T/C values less than or equal to 42% and/or LCK values of 0.5 or greater are considered active; percent T/C values less than 10% are considered highly active
Source text: as §1
The anti-tumor effect of a combination of lorvotuzumab mertansine and DOXIL® (i.e., PEGylated Liposomal Doxorubicin (PLD)) was evaluated in an established subcutaneous xenograft model of ovarian cancer. Athymic nude mice were inoculated with COLO 720E human ovarian cancer cells (1×10^7 cells/animal) injected subcutaneously into the right flank. When the tumors reached about 100 mm^3 in size (10 days after tumor cell inoculation), the mice were randomly divided into four groups (six animals per group). A control group was treated with a single intravenous injection of PBS. A second group of mice were treated with the single agent lorvotuzumab mertansine at a dose of 11 mg/kg once weekly for three weeks (days 10, 17 and […] post tumor cell inoculation) administered intravenously. The third group received single-agent DOXIL® at a dose of 11 mg/kg (single injection on day 10 post tumor cell inoculation) administered intravenously. A fourth group was treated with the combination of lorvotuzumab mertansine and DOXIL® with the same doses and routes of administration as for individual treatments. Tumor growth was monitored by measuring tumor size twice per week. Tumor size was calculated with the formula: length×width×height× 1/2.

[5] = lorvotuzumab mertansine 11 mg/kg iv once weekly x3, DOXIL 11 mg/kg iv single injection, combination same doses

Molecule	mice tumor free until the end of the study [1]	% of tumor growth for treated vs. control (T/C) [1] [%]	anti-tumor activity rating (NCI standards) [1]	complete regression (CR) ([1]; six mice per group)	% of tumor growth for treated vs. control (T/C) [2] [%]	anti-tumor activity rating (NCI standards) [2]	tumor regressions (any) [2]	antitumor activity as a single agent [3]	mice remaining tumor free to the end of the study ([4]; day 118, six mice per group)	% of tumor growth for treated vs. control (T/C) [4, 5] [%]	anti-tumor activity rating (NCI standards) [4, 5]	complete regressions (CR) ([4]; six mice per group)	partial regression (PR) ([1]; six mice per group)
CC[C@@]1(O)C(=O)OCc2c1cc1n(c2=O)Cc2cc3c(CN(C)C)c(O)ccc3nc2-1 [topotecan, reference compound]	no tumor-free mice	26	active	one of six									
Nc1ccn([C@@H]2O[C@H](CO)[C@@H](O)C2(F)F)c(=O)n1 [gemcitabine, reference compound]					77	inactive	no regressions						
lorvotuzumab mertansine: antibody-drug conjugate comprised of the CD56-binding monoclonal antibody huN901, the SPP linker, and the maytansinoid cytotoxic agent DM1 (conjugate, chains of the INN, looked up, SPP linker, DM1 maytansinoid) VH: QVQLVESGGGVVQPGRSLRLSCAASGFTFSSFGMHWVRQAPGKGLEWVAYISSGSFTIYYADSVKGRFTISRDNSKNTLYLQMNSLRAEDTAVYYCARMRKGYAMDYWGQGTLVTVSS VL: DVVMTQSPLSLPVTLGQPASISCRSSQIIIHSDGNTYLEWFQQRPGQSPRRLIYKVSNRFSGVPDRFSGSGSGTDFTLKISRVEAEDVGVYYCFQGSHVPHTFGQGTKVEIK	no tumor-free mice	59	inactive		38	modest antitumor activity; also recorded: active	no tumor regressions	marked antitumor activity	one	14	active	one and one of six	one of six
